To fix the notation:
B1: c-Myc tagged MIRO1 (mitochondrial rho GTPase 1), wild type [not stated] / MCU (mitochondrial Ca2+ uniporter), endogenous in HEK cells [human (endogenous in HEK)] (parent)
chain 1: MKKDVRILLVGEPRVGKTSLIMSLVSEEFPEEVPPRAEEITIPADVTPERVPTHIVDYSEAEQSDEQLHQEISQANVICIVYAVNNKHSIDKVTSRWIPLINERTDKDSRLPLILVGNKSDLVEYSSMETILPIMNQYTEIETCVECSAKNLKNISELFYYAQKAVLHPTGPLYCPEEKEMKPACIKALTRIFKISDQDNDGTLNDAELNFFQRICFNTPLAPQALEDVKNVVRKHISDGVADSGLTLKGFLFLHTLFIQRGRHETTWTVLRRFGYDDDLDLTPEYLFPLLKIPPDCTTELNHHAYLFLQSTFDKHDLDRDCALSPDELKDLFKVFPYIPWGPDVNNTVCTNERGWITYQGFLSQWTLTTYLDVQRCLEYLGYLGYSILTEQESQASAVTVTRDKKIDLQKKQTQRNVFRCNVIGVKNCGKSGVLQALLGRNLMRQKKIREDHKSYYAINTVYVYGQEKYLLLHDISESEFLTEAEIICDVVCLVYDVSNPKSFEYCARIFKQHFMDSRIPCLIVAAKSDLHEVKQEYSISPTDFCRKHKMPPPQAFTCNTADAPSKDIFVKLTTMAMYPHVTQADLKSSTFWLRASFGATVFAVLGFAMYKALLKQR
chain 2: VHQRIASWQNLGAVYCSTVVPSDDVTVVYQNGLPVISVRLPSRRERCQFTLKPISDSVGVFLRQLQEEDRGIDRVAIYSPDGVRVAASTGIDLLLLDDFKLVINDLTYHVRPPKRDLLSHENAATLNDVKTLVQQLYTTLCIEQHQLNKERELIERLEDLKEQLAPLEKVRIEISRKAEKRTTLVLWGGLAYMATQFGILARLTWWEYSWDIMEPVTYFITYGSAMAMYAYFVMTRQEYVYPEARDRQYLLFFHKGAKKSRFDLEKYNQLKDAIAQAEMDLKRLRDPLQVHLPLRQIGEKD

In the test the parent is B1. Put plainly: co-immunoprecipitation (anti-Myc IP, immunoblot quantification). The settings on record: with MCU (mitochondrial Ca2+ uniporter), c-Myc-tagged MIRO1 constructs expressed in HEK cells for 24 h, n = 6 independent experiments, parent: 0.26, read off a plot. (Immunoblotting shows a protein as a band on a membrane.)
On to chain 1 S432N, for which the response came out at 0.36 AU.
Under chain 1 E208K E328K stands 0.065 AU.

Values taken from paper PMC11988184.
